From patent US20030180282A1, “Method of treatment of thrombotic events” (priority 2002, published 2003)

How the values were obtained:
[1] = test system: platelets; assay: in vitro whole blood flow cytometry of platelet receptors and platelet-monocyte aggregates; assay type: cell-based, human; conditions: TNK 12 μg/mL, t-PA 4 μg/mL
Experimental: (§1) Blood samples for the in vitro study were obtained from 9 healthy volunteers. None of the subjects smoked or had hypertension, diabetes, or an abnormal hematocrit. None had received aspirin or any other antiplatelet drugs. All subjects underwent blood sampling after at least 30 minutes of rest and 2 or more hours of fasting. Blood was drawn from an antecubital vein between 8 am and 10 am in order to avoid any diurnal influence. A 21-gauge butterfly needle was used to draw blood into a tube containing 3.8% sodium citrate (1:9 volume); the first 1.5 mL of free running blood was discarded. One tube was kept as an internal control. A second tube was incubated with tenecteplase (TNK) for 30 minutes at room temperature in order to achieve a final concentration of 12 μg/mL. The third tube was similarly incubated with alteplase (t-PA) to achieve a concentration of 4 μg/mL. The concentrations of TNK and t-PA that were chosen approximated conventional plasma levels observed in patients receiving TNK and t-PA bolus (30 mg, and 15 mg, respectively; data on file, Genentech, Inc., South San Francisco, Calif.). Fresh solutions of TNK and t-PA were prepared in Dulbecco's phosphate buffered saline (DPBS) ex tempore on the morning of the platelet studies.
The surface expression of platelet receptors was determined by flow cytometry by using the following monoclonal antibodies: CD 41 (glycoprotein [GP] IIb/IIIa, α IIbβ3) CD 42b (GP Ib), CD 62p (P-selectin), CD 51/CD 61 (αvβ3, or vitronectin receptor), CD 31 (platelet endothelial cell adhesion molecule [PECAM]-1), CD 107a (LAMP-1), CD 107b (LAMP-2), CD 63 (LIMP or LAMP-3), and CD 151 (PETA-3) (PharMingen, San Diego, Calif.). Platelet-leukocyte interactions were assessed by using dual antibodies for a pan-platelet marker (CD 41), together with CD 14, a monocyte/macrophage marker. The blood-citrate mixture (50 μl) was diluted with 450 μl Tris buffered saline (TBS) (10 mmol/L Tris, 0.15 mol/L sodium chloride) and mixed by gently inverting an Eppendorf tube 2 times. The corresponding antibody was then added (5 μl) and incubated at 4° C. for 30 minutes. After incubation, 400 μl of 2% buffered paraformaldehyde was added for fixation. The samples were analyzed on a Becton Dickinson FACScan flow cytometer set up to measure fluorescent light scatter, as previously described. All parameters were collected by using 4-decade logarithmic amplification. The data were collected in list mode files and then analyzed. P-selectin was expressed as percent positive cells. Other antigens were expressed as log mean fluorescence intensity.
For all comparisons, statistical analyses were done by using repeated measures ANOVA. Post hoc comparison was performed by use of the Bonferroni t-test to identify specific differences in platelet aggregation and receptor expression between patients treated with TNK and t-PA, and controls. The Mann-Whitney U test was used to analyze non-parametric data. Normally distributed data were expressed as mean±SE, and skewed data as median (range). Probability values of P<0.05 were regarded as statistically significant. Linear regression analysis was applied to normally distributed data for all study participants by using the Statview 4.1 program for analysis.

[2] = test system: platelets; assay: rapid platelet-function assay (Ultegra); assay type: cell-based, human; conditions: TNK 12 μg/mL, t-PA 4 μg/mL
Experimental: as §1
With rapid platelet-function assay (RPFA (Ultegra®); Accumetrics, Inc., San Diego, Calif.), polystyrene beads coated with fibrinogen are placed in a cartridge along with a peptide that activates the thrombin receptor. A whole blood citrate mixture is added to the cartridge, and agglutination between platelets and coated beads is recorded. The data mirror turbidometric platelet aggregation and reflect the degree of platelet glycoprotein IIb/IIIa blockade.
For all comparisons, statistical analyses were done by using repeated measures ANOVA. Post hoc comparison was performed by use of the Bonferroni t-test to identify specific differences in platelet aggregation and receptor expression between patients treated with TNK and t-PA, and controls. […] Normally distributed data were expressed as mean±SE, and skewed data as median (range). […]

[3] = test system: platelets; assay: platelet aggregation in platelet-rich plasma of AMI patients during first 24 hours after r-PA or t-PA; assay type: in vivo, human; conditions: 3, 6, 12, 24 hours; r-PA: all agonists except ristocetin
Description: Twenty-three consecutive patients admitted to the emergency rooms of St. Agnes Hospital, or the Union Memorial Hospital between July and December of 1996 with a diagnosis of acute myocardial infarction were included. All patients were enrolled in the randomized trial of Reteplase (r-PA) versus accelerated Alteplase (t-PA) for the treatment of acute myocardial infarction, (GUSTO-III trial). […]
The schedule of blood drawing, sample preparation and processing were critical issues of the study design, and were monitored by an independent observer. […]
Citrate and whole blood were immediately mixed 1:9 and then centrifuged at 1200 g for 2.5 minutes in order to obtain platelet-rich plasma (PRP) which was kept at room temperature for use within 1 hour. Platelet counts were determined for each PRP sample with Coulter Counter ZM (Coulter Co., Hialeah, Fla.). […] PA was expressed as the maximum percentage of light transmittance change from the baseline using platelet-poor plasma as a reference at the end of the recording time. PA curves were recorded for 4 minutes and analyzed according to internationally established standards (see, e.g. Ruggeri, Z. M. (1994) Semin. Hemat. 31:229-239). […]

B1: t-PA: recombinant tissue plasminogen activator, thrombolytic agent (Genentech) (protein, UniProt P00750 36-562, looked up)
Tissue-type plasminogen …: SYQVICRDEKTQMIYQQHQSWLRPVLRSNRVEYCWCNSGRAQCHSVPVKSCSEPRCFNGGTCQQALYFSDFVCQCPEGFAGKCCEIDTRATCYEDQGISYRGTWSTAESGAECTNWNSSALAQKPYSGRRPDAIRLGLGNHNYCRNPDRDSKPWCYVFKAGKYSSEFCSTPACSEGNSDCYFGNGSAYRGTHSLTESGASCLPWNSMILIGKVYTAQNPSAQALGLGKHNYCRNPDGDAKPWCHVLKNRRLTWEYCDVPSCSTCGLRQYSQPQFRIKGGLFADIASHPWQAAIFAKHRRSPGERFLCGGILISSCWILSAAHCFQERFPPHHLTVILGRTYRVVPGEEEQKFEVEKYIVHKEFDDDTYDNDIALLQLKSDSSRCAQESSVVRTVCLPPADLQLPDWTECELSGYGKHEALSPFYSERLKEAHVRLYPSSRCTSQHLLNRTVTDNMLCAGDTRSGGPQANLHDACQGDSGGPLVCLNDGRMTLVGIISWGLGCGQKDVPGVYTKVTNYLDWIRDNMRP
[1]
  expression of PECAM-1 compared with saline-treated samples: trend toward diminished expression
  expression of glycoprotein IIb/IIIa compared with saline-treated samples: reduced expression
  formation of platelet-monocyte aggregates compared with saline-treated samples: trend toward diminished
[2]
  platelet activation units (Ultegra) compared with DPBS: reduction
[3]
  platelet aggregation, change between baseline and other time points: no statistically significant differences
